From the supplement of paper PMC9170038

Test system: MS2 coat protein
Test: apparent KD of MS2 coat protein; designed switch direction (-1 OFF switch, 1 ON switch): 1; higher = weaker reporter binding
In short: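 Stalled E. coli RNA polymerase transcribed designed RNA switches on Illumina chips, which were then titrated with SNAP-549-labelled MS2 coat protein, doubling from 0.7 or 1.5 nM to 3 µM. Steps lasted from 0.8–1.5 h at the lowest concentration to 10–20 min at the highest. The apparent KD is each design's median over clusters of curve-fitted normalised fluorescence.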

[1] = Eterna round: R95, input ligand: FMN 200 uM
[2] = Eterna round: R95, input ligand: microRNA oligo, concentration not stated
[3] = Eterna round: R95, input ligand: none
[4] = input ligand: microRNA oligo, concentration not stated

| Sequence | apparent KD of MS2 coat protein [1] | apparent KD of MS2 coat protein [2] | apparent KD of MS2 coat protein [3] | apparent KD of MS2 coat protein (input ligand: FMN 200 uM) | apparent KD of MS2 coat protein [4] | apparent KD of MS2 coat protein (input ligand: none) |
| --- | --- | --- | --- | --- | --- | --- |
| AGGAAGGAGACUGAGGAUAUCGUUGAAAGGACAUGAGGAUCACCCAUGUGUAUAGGAUUGGAGAACGAGAAGGCAGAGGAGUGGA [JR_SS2_Sub045] (puzzle: Same State 2) | 36.4 nM | 46.6 nM | 71.2 nM | – | – | – |
| AGGCUCAGACGAGGAUAUAUGCGAUCACAUGAGGAUCACCCAUGUCUCGAGCUUCGGCUCGAGGCAUAGAAGGUGUCUGAGCCA [SSNG2/4-C1] (Eterna round: R96, puzzle: Same State NG 2) | – | – | – | 31.4 nM | 111 nM | 126 nM |
| AGGCUCAGACGAGGAUAUGAUCAUGGCGCUUCGGCGCAUACAUGAGGAUCACCCAUGUAAAGUGAUCAGAAGGCGUCUGAGCCA [SSNG2/7-A1] (Eterna round: R96, puzzle: Same State NG 2) | – | – | – | 12.3 nM | 14.5 nM | 14.2 nM |
| AGUCCACCCUGAGGUGGACAAAAGCAUGUACAUGAGGAUCACCCAUGUCAUGUACAAGCUUUUUGCUCGUCUUAAUA [Mat - hsa-mir-208a - Mod of JL - D42] (puzzle: Sensor for hsa-mir-208a) | 589 nM | 17.9 nM | 734 nM | – | – | – |
| AGUCCAGAAUAAACUGGACAAAGACAUGUACAUGAGGAUCACCCAUGUCAUGUACAAGUUUUUUGCUCGUCUUAUAA (puzzle: Sensor for hsa-mir-208a) | 39.9 nM | 10.4 nM | 37.2 nM | – | – | – |
| AGUCCAGCAAGAGCUGGACAAAAGCAUGUACAUGAGGAUCACCCAUGUUCAUGUACAAGCUUUUUGCUCGUCUUAAA [Mat - hsa-mir-208a - Mod of JL - 57] (puzzle: Sensor for hsa-mir-208a) | 413 nM | 16.5 nM | 659 nM | – | – | – |
| AGUCCAGCAUGAGCUGGACAAAAGCAUGUACAUGAGGAUCACCCAUGUUCAUGUACAAGCUUUUUGCAAGUCAAAAU [Mat - hsa-mir-208a - Mod of JL - 81] (puzzle: Sensor for hsa-mir-208a) | 614 nM | 17.8 nM | 595 nM | – | – | – |
| AGUCCAGCCUGAGCUGGACAAAAGCAUGUACAUGAGGAUCACCCAUGUCAUGUACAAGCUUUUUGCUCGUCUUAAAG [Mat - hsa-mir-208a - Mod of JL - D23] (puzzle: Sensor for hsa-mir-208a) | 231 nM | 18 nM | 312 nM | – | – | – |
| AGUCCAGCCUGAGCUGGACAAAAGCAUGUACAUGAGGAUCACCCAUGUCAUGUACAAGCUUUUUGCUCGUCUUAAUA [JL zipper 49] (Eterna round: R96, puzzle: Sensor for hsa-mir-208a) | – | – | – | 600 nM | 16.2 nM | 471 nM |
| AGUCCAGCCUGAGCUGGACAAAAGCAUGUACAUGAGGAUCACCCAUGUCAUGUACAAGCUUUUUGCUCGUCUUAAUA [Mat - hsa-mir-208a - Mod of JL - D44] (puzzle: Sensor for hsa-mir-208a) | 544 nM | 15.3 nM | 634 nM | – | – | – |
| AGUCCAGCCUGAGCUGGACAAAAGCAUGUACAUGAGGAUCACCCAUGUCAUGUACAAGCUUUUUGCUCGUUUUAAUA [Zipper 49 - 14] (puzzle: Sensor for hsa-mir-208a) | 509 nM | 14 nM | 679 nM | – | – | – |
| AGUCCAGCCUGAGCUGGACAAAAGCAUGUACAUGAGGAUCACCCAUGUCAUGUAUAAGCUUUUUGCUCGUCUUAAAA [Zipper 46 - 10] (puzzle: Sensor for hsa-mir-208a) | 18.9 nM | 9.63 nM | 20.1 nM | – | – | – |
| AGUCCAGCCUGAGCUGGACAAAAGCAUGUACAUGAGGAUCACCCAUGUUCAUGUACAAGCUUUUUGCUCGUCGGAAU [Mat - hsa-mir-208a - Mod of JL - 49] (Eterna round: R96, puzzle: Sensor for hsa-mir-208a) | – | – | – | 668 nM | 16.6 nM | 654 nM |
| AGUCCAGCCUGAGCUGGACAAAAGCAUGUACAUGAGGAUCACCCAUGUUCAUGUACAAGCUUUUUGCUCGUCGGAAU [Mat - hsa-mir-208a - Mod of JL - 49] (puzzle: Sensor for hsa-mir-208a) | 762 nM | 16.5 nM | 905 nM | – | – | – |
| AGUCCAGCCUGAGCUGGACAAAAGCAUGUACAUGAGGAUCACCCAUGUUCAUGUACAAGCUUUUUGCUCGUCUAAAG [Mat - hsa-mir-208a - Mod of JL - 66] (puzzle: Sensor for hsa-mir-208a) | 506 nM | 16.6 nM | 880 nM | – | – | – |
| AGUCCAGCCUGAGCUGGACAAAAGCAUGUACAUGAGGAUCACCCAUGUUCAUGUACAAGCUUUUUGCUCGUCUGAAU [Mat - hsa-mir-208a - Mod of JL - 47] (puzzle: Sensor for hsa-mir-208a) | 709 nM | 19.9 nM | 874 nM | – | – | – |
| AGUCCAGCCUGAGCUGGACAAAAGCAUGUACAUGAGGAUCACCCAUGUUCAUGUACAAGCUUUUUGCUCGUCUUGCG [salish99_208a_r3_106x] (puzzle: Sensor for hsa-mir-208a) | 641 nM | 17.3 nM | 867 nM | – | – | – |
| AGUCCAGCCUGAGCUGGACAAAAGCAUGUACAUGAGGAUCACCCAUGUUCGUGUACAAGCUUUUUGCUCGUCUUAAA [Zipper 52 - 5] (puzzle: Sensor for hsa-mir-208a) | 518 nM | 13.5 nM | 725 nM | – | – | – |
| AGUCCAGCCUGAGCUGGACAAGAGCAUGUACAUGAGGAUCACCCAUGUCAUGUACAAGCUUUUUGCUCGUCUUAAAA [Zipper 46 - 2] (puzzle: Sensor for hsa-mir-208a) | 493 nM | 14.3 nM | 478 nM | – | – | – |
| AUAAAACAUGAGGAUCACCCAUGUCAACAAAGUCGAGGAUAUGGGCAAAGAAAAUAAGAACCAGAAGGCGAAUAAU [salish99_ss1_r3_056] (Eterna round: R96, puzzle: Same State 1) | – | – | – | – | 245 nM | – |
| AUAAAACAUGAGGAUCACCCAUGUCAACAAAGUCGAGGAUAUGGGCAAAGAAAAUAAGAACCAGAAGGCGAAUAAU [salish99_ss1_r3_056] (puzzle: Same State 1) | 36.2 nM | 319 nM | 489 nM | – | – | – |
| AUAAAACAUGAGGAUCACCCAUGUCAACAAAGUCGAGGAUAUGGGCAAAUAAAAUAAGAACCAGAAGGCGAAUAAG [salish99_SS1_r3_004] (puzzle: Same State 1) | 30.7 nM | 88 nM | 266 nM | – | – | – |
| AUAAAACAUGAGGAUCACCCAUGUCAACAAAGUCGAGGAUAUGGGCAAAUAAUAUAAGAACCAGAAGGCGAAUAAU [salish99_ss1_r3_022] (puzzle: Same State 1) | 36.6 nM | 207 nM | 191 nM | – | – | – |
| AUAAGUCCGAUGCUCGUCUCUCCGUACAAACAUGAGGAUCACCCAUGUGAUCGGGCAGUAGCCCGAUCAGUAUGGCC [Raedre] (puzzle: Sensor for hsa-mir-208a) | 51.5 nM | 23.9 nM | 56.4 nM | – | – | – |
| AUACAUGAGGAUCACCCAUGUAAUUAAUUAAUUAAUAAGAUCAAGGAUAUCAGCUCGAAUAGAGCUGAGAAGGUGAUCACAUGU [SSNG3/21-D1] (Eterna round: R96, puzzle: Same State NG 3) | – | – | – | – | 177 nM | – |
| AUACAUGAGGAUCACCCAUGUAAUUAAUUAAUUAAUAAGAUCAAGGAUAUCAGCUCGAUUAGAGCUGAGAAGGUGAUCACAUGU [SSNG3/21-D2] (Eterna round: R96, puzzle: Same State NG 3) | – | – | – | – | 272 nM | – |
| AUAGUUGCCGAAGGAUAUGAUGAGGAUCACCCAUCAGAAGGUUGGCUAUUGGGUGGACAUGAGGAUCACCCAUGUCCUUUGGUU (Eterna round: R96, puzzle: Same State NG 1) | – | – | – | 58.2 nM | 68.9 nM | 113 nM |
| AUAGUUUCCGAAGGAUAUGAUGAGGAUCACCCAUCAGAAGGUUGGCUAUUGGGCGGACAUGAGGAUCACCCAUGUCUUUCGGUU (Eterna round: R96, puzzle: Same State NG 1) | – | – | – | 84.7 nM | 76.8 nM | 101 nM |
